Assays:
c-Src SH2 = test: SH2 binding enrichment of the phosphorylated peptide, bacterial display (enrichment ratio); higher = better substrate or ligand; peptides without Tyr show the background
Grb2 SH2 = Grb2 SH2 (UniProt P62993); test: as above
SHP2-C SH2 = test: as above
EPHB2 = EPHB2 (UniProt P29323); test: phosphorylation enrichment, bacterial display (enrichment ratio); higher = better substrate or ligand; peptides without Tyr show the background
Fer (mouse) = test: as above
FGFR3 = FGFR3 (UniProt P22607); test: as above
AncSZ = test: as above
Jak2 = Jak2 (UniProt O60674); test: as above
Sequence of Jak2 (O60674 whole entry, looked up): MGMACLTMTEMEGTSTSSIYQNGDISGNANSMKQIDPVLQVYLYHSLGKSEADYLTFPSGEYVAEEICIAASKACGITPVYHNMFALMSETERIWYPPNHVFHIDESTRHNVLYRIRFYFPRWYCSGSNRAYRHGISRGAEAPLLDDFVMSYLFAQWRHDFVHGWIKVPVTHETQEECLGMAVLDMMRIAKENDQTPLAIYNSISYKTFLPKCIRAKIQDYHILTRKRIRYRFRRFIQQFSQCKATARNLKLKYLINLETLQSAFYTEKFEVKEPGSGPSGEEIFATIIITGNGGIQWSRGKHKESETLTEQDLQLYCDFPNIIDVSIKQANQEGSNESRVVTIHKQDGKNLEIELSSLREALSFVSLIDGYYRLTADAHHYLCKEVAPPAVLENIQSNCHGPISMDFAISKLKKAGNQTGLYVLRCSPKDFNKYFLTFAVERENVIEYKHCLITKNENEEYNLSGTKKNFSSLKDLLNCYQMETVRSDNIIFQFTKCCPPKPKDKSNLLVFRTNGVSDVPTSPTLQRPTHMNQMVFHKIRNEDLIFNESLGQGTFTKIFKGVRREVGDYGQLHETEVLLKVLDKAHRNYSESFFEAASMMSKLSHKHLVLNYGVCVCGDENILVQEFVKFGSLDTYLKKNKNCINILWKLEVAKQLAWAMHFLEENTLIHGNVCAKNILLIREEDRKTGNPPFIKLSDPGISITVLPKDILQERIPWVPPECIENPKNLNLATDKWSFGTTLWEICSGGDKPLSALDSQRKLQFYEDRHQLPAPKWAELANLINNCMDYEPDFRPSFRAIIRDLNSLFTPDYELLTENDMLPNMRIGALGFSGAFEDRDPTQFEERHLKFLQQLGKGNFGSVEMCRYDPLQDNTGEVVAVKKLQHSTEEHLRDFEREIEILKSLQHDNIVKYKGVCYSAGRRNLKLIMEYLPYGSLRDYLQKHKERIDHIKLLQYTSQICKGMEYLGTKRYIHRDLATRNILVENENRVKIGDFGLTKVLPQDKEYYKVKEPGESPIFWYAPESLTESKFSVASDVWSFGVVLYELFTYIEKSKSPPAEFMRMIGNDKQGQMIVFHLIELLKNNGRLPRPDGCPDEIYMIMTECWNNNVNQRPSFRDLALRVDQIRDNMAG

c-Src = test: as above
Fyn = Fyn (UniProt P06241); test: as above
Sequence of Fyn (P06241 whole entry, looked up): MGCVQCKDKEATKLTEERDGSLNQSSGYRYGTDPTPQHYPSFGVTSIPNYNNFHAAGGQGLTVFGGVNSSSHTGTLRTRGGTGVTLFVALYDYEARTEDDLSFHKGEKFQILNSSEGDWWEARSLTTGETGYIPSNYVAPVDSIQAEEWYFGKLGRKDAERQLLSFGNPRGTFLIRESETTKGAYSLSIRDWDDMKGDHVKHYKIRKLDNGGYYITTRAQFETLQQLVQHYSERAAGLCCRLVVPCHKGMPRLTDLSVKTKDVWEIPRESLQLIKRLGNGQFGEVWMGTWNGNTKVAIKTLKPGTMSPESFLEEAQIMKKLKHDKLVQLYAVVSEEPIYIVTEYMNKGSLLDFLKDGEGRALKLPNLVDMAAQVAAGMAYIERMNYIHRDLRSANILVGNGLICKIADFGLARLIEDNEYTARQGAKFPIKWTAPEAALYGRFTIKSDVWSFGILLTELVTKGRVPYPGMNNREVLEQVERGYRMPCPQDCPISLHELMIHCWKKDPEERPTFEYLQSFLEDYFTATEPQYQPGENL

Hck = Hck (UniProt P08631); test: as above
Sequence of Hck (P08631 whole entry, looked up): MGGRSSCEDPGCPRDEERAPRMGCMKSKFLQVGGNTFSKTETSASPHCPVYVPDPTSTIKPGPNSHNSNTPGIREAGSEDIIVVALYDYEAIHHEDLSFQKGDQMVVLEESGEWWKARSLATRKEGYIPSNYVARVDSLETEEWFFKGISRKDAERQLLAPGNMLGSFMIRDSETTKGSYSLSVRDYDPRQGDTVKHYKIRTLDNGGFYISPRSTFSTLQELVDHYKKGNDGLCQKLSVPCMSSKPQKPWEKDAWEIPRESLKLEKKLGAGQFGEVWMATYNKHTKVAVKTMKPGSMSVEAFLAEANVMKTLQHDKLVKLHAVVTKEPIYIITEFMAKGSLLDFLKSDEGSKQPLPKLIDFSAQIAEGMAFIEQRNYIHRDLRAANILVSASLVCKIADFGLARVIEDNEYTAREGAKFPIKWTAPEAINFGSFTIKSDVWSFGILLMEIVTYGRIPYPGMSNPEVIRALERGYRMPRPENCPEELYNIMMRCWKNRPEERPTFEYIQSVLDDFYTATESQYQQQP

FGFR1 = FGFR1 (UniProt P11362); test: as above
Sequence of FGFR1 (P11362 whole entry, looked up): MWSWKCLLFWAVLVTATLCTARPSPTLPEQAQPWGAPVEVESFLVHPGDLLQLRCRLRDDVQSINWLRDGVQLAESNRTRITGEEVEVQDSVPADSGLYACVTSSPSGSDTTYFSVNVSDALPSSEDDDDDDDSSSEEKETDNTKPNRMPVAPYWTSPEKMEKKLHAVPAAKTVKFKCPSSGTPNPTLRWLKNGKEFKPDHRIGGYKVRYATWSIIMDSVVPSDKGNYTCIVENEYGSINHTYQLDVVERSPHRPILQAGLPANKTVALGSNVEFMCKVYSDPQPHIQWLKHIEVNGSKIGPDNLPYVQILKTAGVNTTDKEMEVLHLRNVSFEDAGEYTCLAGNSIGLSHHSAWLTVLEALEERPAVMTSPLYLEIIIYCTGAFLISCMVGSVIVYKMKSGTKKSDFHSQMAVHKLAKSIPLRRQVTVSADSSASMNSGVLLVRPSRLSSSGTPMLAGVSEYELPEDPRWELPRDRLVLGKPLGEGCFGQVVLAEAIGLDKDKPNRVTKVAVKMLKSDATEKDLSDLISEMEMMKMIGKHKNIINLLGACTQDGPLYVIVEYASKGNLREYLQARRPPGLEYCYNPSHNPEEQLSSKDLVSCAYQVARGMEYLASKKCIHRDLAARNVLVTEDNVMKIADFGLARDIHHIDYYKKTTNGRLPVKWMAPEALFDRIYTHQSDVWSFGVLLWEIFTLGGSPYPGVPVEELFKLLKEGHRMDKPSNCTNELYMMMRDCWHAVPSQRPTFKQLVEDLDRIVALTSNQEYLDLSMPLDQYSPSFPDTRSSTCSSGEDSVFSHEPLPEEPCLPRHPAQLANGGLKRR

MERTK = MERTK (UniProt Q12866); test: as above
Sequence of MERTK (Q12866 whole entry, looked up): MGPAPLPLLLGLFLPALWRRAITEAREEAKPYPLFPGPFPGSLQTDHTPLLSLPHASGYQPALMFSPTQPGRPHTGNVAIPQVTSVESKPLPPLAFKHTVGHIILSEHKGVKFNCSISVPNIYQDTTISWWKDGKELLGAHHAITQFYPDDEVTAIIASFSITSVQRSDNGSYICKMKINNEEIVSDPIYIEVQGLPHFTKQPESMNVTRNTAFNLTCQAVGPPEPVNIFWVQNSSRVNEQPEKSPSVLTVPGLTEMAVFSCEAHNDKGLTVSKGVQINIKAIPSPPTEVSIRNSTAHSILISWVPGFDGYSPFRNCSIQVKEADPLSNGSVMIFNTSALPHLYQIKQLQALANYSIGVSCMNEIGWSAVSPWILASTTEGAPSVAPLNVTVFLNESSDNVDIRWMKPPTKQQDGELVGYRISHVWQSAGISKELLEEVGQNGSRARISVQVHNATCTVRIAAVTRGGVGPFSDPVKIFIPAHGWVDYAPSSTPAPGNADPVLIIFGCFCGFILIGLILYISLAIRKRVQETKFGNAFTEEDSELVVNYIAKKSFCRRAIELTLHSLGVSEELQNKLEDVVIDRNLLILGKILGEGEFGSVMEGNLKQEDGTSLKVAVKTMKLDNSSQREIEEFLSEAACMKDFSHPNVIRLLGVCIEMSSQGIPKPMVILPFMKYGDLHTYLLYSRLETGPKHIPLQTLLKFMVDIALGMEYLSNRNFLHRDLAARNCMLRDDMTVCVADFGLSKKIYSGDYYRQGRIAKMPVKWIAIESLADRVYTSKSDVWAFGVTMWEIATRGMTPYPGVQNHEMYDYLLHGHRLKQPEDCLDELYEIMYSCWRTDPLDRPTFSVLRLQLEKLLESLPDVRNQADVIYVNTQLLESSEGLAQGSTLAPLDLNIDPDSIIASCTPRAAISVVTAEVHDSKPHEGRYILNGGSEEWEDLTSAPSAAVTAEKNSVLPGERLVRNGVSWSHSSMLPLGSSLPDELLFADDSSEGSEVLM

Fes = Fes (UniProt P07332); test: as above
c-Abl (mouse) = test: as above
EPHB1 = EPHB1 (UniProt P54762); test: as above
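Wherever SH2 binding enrichment of the phosphorylated peptide, bacterial display is given: peptide library displayed on the E. coli surface as eCPX fusions, selected cells deep-sequenced, score is each peptide's frequency after selection divided by its frequency in the input.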
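Wherever phosphorylation enrichment, bacterial display is given: 11-residue human phosphosite peptides and single-mutation variants displayed on the E. coli surface, counted by deep sequencing, each peptide's frequency after selection divided by its frequency in the unselected input library; frequency after pTyr selection over input frequency; kinase dosed for 20-30% of maximal phosphorylation in three min.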

Sequence of EPHB2 (P29323 whole entry, looked up): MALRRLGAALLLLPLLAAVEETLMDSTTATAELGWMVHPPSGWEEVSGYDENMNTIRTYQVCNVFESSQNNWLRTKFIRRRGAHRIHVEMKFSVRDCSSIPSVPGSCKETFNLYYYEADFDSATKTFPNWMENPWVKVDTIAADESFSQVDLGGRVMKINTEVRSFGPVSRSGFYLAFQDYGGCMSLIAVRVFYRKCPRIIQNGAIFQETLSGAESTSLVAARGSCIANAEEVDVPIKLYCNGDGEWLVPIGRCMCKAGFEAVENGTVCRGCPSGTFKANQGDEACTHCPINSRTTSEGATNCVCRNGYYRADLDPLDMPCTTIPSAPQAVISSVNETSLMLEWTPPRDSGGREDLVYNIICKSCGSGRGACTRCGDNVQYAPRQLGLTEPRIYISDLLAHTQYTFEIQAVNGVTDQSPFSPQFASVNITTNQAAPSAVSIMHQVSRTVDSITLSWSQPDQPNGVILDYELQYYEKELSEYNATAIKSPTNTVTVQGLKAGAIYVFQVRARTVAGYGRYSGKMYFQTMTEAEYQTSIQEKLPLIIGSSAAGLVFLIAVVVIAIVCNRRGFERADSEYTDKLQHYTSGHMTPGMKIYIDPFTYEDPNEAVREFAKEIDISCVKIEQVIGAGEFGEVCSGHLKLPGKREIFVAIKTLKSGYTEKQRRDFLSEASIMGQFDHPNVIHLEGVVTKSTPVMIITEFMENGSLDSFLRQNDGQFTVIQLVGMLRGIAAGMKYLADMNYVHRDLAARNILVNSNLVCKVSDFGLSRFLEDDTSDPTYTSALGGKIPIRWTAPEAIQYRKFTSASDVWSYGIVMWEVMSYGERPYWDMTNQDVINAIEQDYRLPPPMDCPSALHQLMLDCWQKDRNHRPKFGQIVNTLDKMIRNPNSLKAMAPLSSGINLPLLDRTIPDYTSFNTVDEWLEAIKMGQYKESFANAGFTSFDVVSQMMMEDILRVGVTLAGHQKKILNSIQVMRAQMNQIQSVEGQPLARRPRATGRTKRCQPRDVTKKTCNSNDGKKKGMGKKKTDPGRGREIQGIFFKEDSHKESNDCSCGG

Row | Sequence | SH2 binding enrichment (c-Src SH2) | SH2 binding enrichment (Grb2 SH2) | SH2 binding enrichment (SHP2-C SH2) | phosphorylation enrichment (EPHB2) | phosphorylation enrichment (Fer (mouse)) | phosphorylation enrichment (FGFR3) | phosphorylation enrichment (AncSZ) | phosphorylation enrichment (Jak2) | phosphorylation enrichment (c-Src) | phosphorylation enrichment (Fyn) | phosphorylation enrichment (Hck) | phosphorylation enrichment (FGFR1) | phosphorylation enrichment (MERTK) | phosphorylation enrichment (Fes) | phosphorylation enrichment (c-Abl (mouse)) | phosphorylation enrichment (EPHB1)
1 | QGQHWYSSSDT [CASP10_Y9_K14T] | 1.53 | 0.827 | 0.83 | 0.929 | 0.755 | 0.901 | 1.09 | 1.99 | 0.982 | 0.672 | 0.573 | 0.657 | 0.811 | 1.39 | 1.06 | 0.859
2 | GASWRYRSGVS [NEU1_Y242_G243R] | 0.391 | 0.82 | 0.524 | 0.608 | 0.474 | 0.511 | 0.583 | 0.587 | 0.445 | 0.388 | 0.46 | 0.494 | 0.402 | 0.693 | 0.48 | 0.388
3 | FLTQHYDAIPQ [ANG_Y38_K41I] | 13.9 | 0.809 | 0.927 | 0.51 | 9.86 | 0.866 | 0.885 | 0.608 | 0.678 | 0.586 | 2.88 | 0.639 | 2.46 | 0.855 | 0.611 | 0.715
4 | TKEPKYGGAGS [KIAA1210_Y1615_E1616G] | 0.487 | 1.08 | 0.983 | 0.44 | 0.457 | 0.548 | 0.5 | 0.416 | 0.409 | 0.459 | 0.361 | 0.405 | 0.384 | 0.55 | 0.462 | 0.431
5 | TSHKGYVAFLE [CARD9_Y76_G72S] | 2.64 | 0.877 | 0.724 | 0.404 | 0.315 | 0.554 | 0.707 | 0.676 | 0.354 | 0.353 | 0.38 | 0.477 | 0.38 | 0.762 | 0.602 | 0.451
6 | TEALFYTDDTA [ADPRS_Y75_YF] | 0.615 | 0.739 | 0.675 | 0.614 | 0.557 | 0.754 | 1.26 | 1.17 | 0.634 | 0.568 | 0.602 | 0.535 | 0.541 | 1.44 | 0.787 | 0.643
7 | MFNPFYGLFEF [NEDD4L_Y680_YF] | 1.17 | 1.56 | 1.5 | 0.549 | 5.44 | 0.794 | 0.998 | 0.852 | 5.41 | 4.38 | 2.35 | 0.602 | 5.83 | 1.04 | 0.775 | 0.513
8 | RELGEYALAEY [ALDH1A3_Y492] | 1.18 | 0.707 | 0.691 | 0.785 | 0.74 | 0.714 | 1.44 | 1.81 | 1.14 | 0.614 | 0.765 | 0.694 | 0.55 | 2.76 | 1.67 | 0.858
9 | MASISYDFCRV [BST2_Y6_T4I_YF] | 0.672 | 0.764 | 0.666 | 0.712 | 1.59 | 0.824 | 1.24 | 1.03 | 0.497 | 0.554 | 0.629 | 0.496 | 0.653 | 1.17 | 0.908 | 0.692
10 | SSEYHYVGGFY [CTSC_Y347] | 1.49 | 0.998 | 4.12 | 12.9 | 2.24 | 11.3 | 3.53 | 2.69 | 3.33 | 3.79 | 4.79 | 13.4 | 6.87 | 0.787 | 14.9 | 9.7
11 | QAYSWYQHQRA [NDST1_Y714_R709Q] | 1.08 | 1.23 | 1.17 | 0.901 | 6.78 | 0.883 | 1.13 | 1.1 | 0.642 | 0.516 | 0.782 | 1.22 | 3.85 | 1.01 | 0.8 | 0.701
12 | VAMELYVFGGV [GAN_Y471] | 0.395 | 0.808 | 0.685 | 0.681 | 0.574 | 0.781 | 1.28 | 1.37 | 1.13 | 0.533 | 0.535 | 0.513 | 0.928 | 1.64 | 1.05 | 0.799
13 | GHLYAYNWISI [BEST1_Y227_D228N] | 0.738 | 0.944 | 0.816 | 5.2 | 12 | 2.83 | 1.71 | 1.33 | 1.32 | 1.01 | 1.24 | 3.67 | 8.13 | 1.49 | 1.21 | 6.38
14 | QGQHWYSSSDK [CASP10_Y9] | 1.21 | 0.905 | 0.829 | 0.596 | 0.579 | 0.6 | 0.826 | 0.645 | 0.552 | 0.671 | 0.754 | 0.665 | 0.573 | 1.17 | 0.697 | 0.766
15 | YRIGPYQPNVP [MATR3_Y784] | 0.77 | 0.765 | 0.883 | 0.504 | 0.5 | 0.712 | 0.685 | 0.44 | 0.402 | 0.505 | 0.486 | 0.769 | 0.358 | 0.736 | 0.501 | 0.565
16 | HSLHDYKEALM [ADA2_Y337] | 0.418 | 0.702 | 0.426 | 0.448 | 0.44 | 0.567 | 0.663 | 0.696 | 0.522 | 0.444 | 0.342 | 0.371 | 0.431 | 0.844 | 0.664 | 0.546
17 | KPNMNYDKLSQ [FLI1_Y332_R337Q] | 1.15 | 0.882 | 0.659 | 0.446 | 0.462 | 0.447 | 0.495 | 0.612 | 0.478 | 0.422 | 0.431 | 0.468 | 0.394 | 0.578 | 0.431 | 0.418
18 | SEASFYKSLNL [NGEF_Y289_YF] | 0.401 | 0.642 | 0.535 | 0.522 | 0.57 | 0.692 | 0.98 | 1.1 | 0.505 | 0.403 | 0.488 | 0.395 | 0.471 | 1.27 | 0.852 | 0.589
19 | RFLRGYRQYAY [HLA-A_Y137_D140Y] | 0.322 | 0.92 | 0.602 | 0.752 | 0.577 | 0.669 | 1.61 | 4.7 | 1.56 | 1.29 | 0.634 | 0.77 | 0.846 | 1.19 | 1.56 | 1.33

Further lines, with some results ahead:

Row | SH2 binding enrichment (c-Src SH2) | SH2 binding enrichment (Grb2 SH2) | SH2 binding enrichment (SHP2-C SH2) | Sequence | phosphorylation enrichment (EPHB2) | phosphorylation enrichment (Fer (mouse)) | phosphorylation enrichment (FGFR3) | phosphorylation enrichment (AncSZ) | phosphorylation enrichment (Jak2) | phosphorylation enrichment (c-Src) | phosphorylation enrichment (Fyn) | phosphorylation enrichment (Hck) | phosphorylation enrichment (FGFR1) | phosphorylation enrichment (MERTK) | phosphorylation enrichment (Fes) | phosphorylation enrichment (c-Abl (mouse)) | phosphorylation enrichment (EPHB1)
20 | 2.04 | 0.787 | 0.545 | YADPYYDYEIE [ZC3H18_Y372] | 1.94 | 1.58 | 7.39 | 1.95 | 1.24 | 3.01 | 2.52 | 1.06 | 9.62 | 2.18 | 1.31 | 0.853 | 2.05
21 | 2.07 | 0.689 | 0.499 | GSQERYFELVE [TSC2_Y407] | 0.571 | 0.541 | 0.826 | 1.13 | 1.17 | 0.509 | 0.462 | 0.466 | 0.947 | 0.489 | 1.27 | 0.813 | 0.577
22 | 0.454 | 0.835 | 0.504 | LREIRYQGGNR [VWF_Y1570_V1565L] | 0.518 | 0.537 | 0.551 | 0.796 | 0.643 | 0.488 | 0.756 | 0.469 | 0.671 | 0.52 | 0.636 | 0.653 | 0.385
23 | 0.344 | 0.686 | 0.718 | PLDGEYFTLQI [TP53_Y327] | 1.36 | 1.19 | 7.34 | 4.14 | 4.17 | 3.81 | 4.48 | 2.55 | 9.82 | 0.663 | 1.47 | 1.57 | 1.32
24 | 0.806 | 1.34 | 0.741 | VMIYAYLLHRG [PTEN_Y138_C136Y] | 0.455 | 0.371 | 0.703 | 0.821 | 0.733 | 0.46 | 0.443 | 0.697 | 0.351 | 0.591 | 0.856 | 0.748 | 0.479
25 | 0.852 | 1.15 | 1.08 | AQMAMYFWEMS [TRPM4_Y577_G582S] | 1.05 | 0.9 | 2.88 | 1.86 | 1.61 | 2.52 | 1.15 | 1.18 | 3.42 | 2.5 | 1.73 | 1.14 | 1.09
26 | 0.509 | 0.85 | 0.558 | DAANNYARGHY [TUBA3E_Y103_S101N] | 0.37 | 0.355 | 0.45 | 0.691 | 0.546 | 0.442 | 0.421 | 0.436 | 0.469 | 0.528 | 0.575 | 0.559 | 0.412
27 | 0.716 | 0.802 | 0.975 | SILAVYSKDNF [PANK2_Y400_YF] | 0.76 | 0.438 | 0.709 | 0.868 | 0.867 | 1.94 | 0.862 | 0.872 | 0.662 | 0.995 | 1.69 | 0.522 | 0.58
28 | 0.951 | 0.923 | 0.816 | EHFSYYGMKAV [SLC15A2_Y61_R57H] | 0.818 | 0.607 | 6.68 | 1.01 | 9.46 | 3.38 | 1.71 | 3.42 | 8.11 | 2.35 | 0.765 | 0.634 | 0.887
29 | 0.503 | 0.789 | 0.844 | TSNNPYFRDQA [RPGRIP1_Y846_A841T] | 0.374 | 0.396 | 0.544 | 0.665 | 0.901 | 0.721 | 0.51 | 0.454 | 0.451 | 0.473 | 0.796 | 0.628 | 0.395
30 | 0.41 | 0.682 | 0.471 | KDIENHIQDGK [RAD50_Y964_Y964H] | 0.542 | 0.414 | 0.445 | 0.69 | 0.621 | 0.446 | 0.488 | 0.463 | 0.41 | 0.413 | 0.684 | 0.392 | 0.378
31 | 1.22 | 1.71 | 1.6 | KMKGDYFRFLA [YWHAG_Y130_YF] | 0.509 | 0.282 | 3.83 | 0.722 | 4.54 | 2.11 | 1.01 | 0.543 | 5.05 | 0.632 | 0.689 | 0.806 | 0.804
32 | 1.08 | 1.31 | 1.26 | CYCSWYRGWAP [TIMP3_Y195_G190C] | 0.632 | 3.41 | 1.02 | 1.03 | 1.04 | 3.7 | 0.721 | 1.01 | 1.19 | 0.733 | 1.08 | 0.882 | 0.628
33 | 1.27 | 1.97 | 1.78 | RCFVFYFSFLL [PTEN_Y177_R173C_YF] | 0.434 | 0.432 | 0.613 | 0.59 | 0.821 | 0.591 | 0.355 | 0.426 | 0.506 | 0.38 | 0.626 | 0.732 | 0.353

Reference: the supplement of paper PMC10065799, “High-throughput profiling of sequence recognition by tyrosine kinases and SH2 domains using bacterial peptide display” (eLife, 2023)
